Test results reported in patent US20210139548A1 (published 2021).
Blank lines part the entries; values can stand above or below the binder they belong to. *1 amine or outer side, *2 acyl side, *3 side chain or, on linkers, in order; H or OH if unused. Side-chain parts run from the residue outwards. The star is where a group is joined. C18 diacid = O=C(O)CCCCCCCCCCCCCCCCC(=O)*; γGlu = O=C(O)[C@H](CCC(=O)[*:2])N[*:1]; Isovaleryl = CC(C)CC(=O)*; AEEA = NCCOCCOCC(=O)O

Biological target: T1, human neuropeptide Y2 receptor (human, UniProt P49146 1-381)
T1 construct: whole, on cells; also called hNPY2 receptor; hNPY2-R
T1 sequence (looked up): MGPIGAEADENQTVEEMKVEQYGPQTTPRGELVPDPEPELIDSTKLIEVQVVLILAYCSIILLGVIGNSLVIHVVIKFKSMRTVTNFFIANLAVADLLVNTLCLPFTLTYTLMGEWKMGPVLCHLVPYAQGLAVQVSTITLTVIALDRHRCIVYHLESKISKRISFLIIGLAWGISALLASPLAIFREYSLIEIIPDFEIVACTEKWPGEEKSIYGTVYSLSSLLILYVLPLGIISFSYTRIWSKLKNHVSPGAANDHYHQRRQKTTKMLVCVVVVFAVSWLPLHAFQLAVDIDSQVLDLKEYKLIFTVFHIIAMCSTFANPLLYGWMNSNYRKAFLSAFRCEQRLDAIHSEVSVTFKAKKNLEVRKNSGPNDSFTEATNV
Assay: radioligand competition (125I-PYY(1-36)), hNPY2R membranes
Method in brief: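 Commercial human Y2 receptor membranes (0.5 μg protein/well) were incubated with peptide for 2 h at room temperature in 50 mM HEPES, 5 mM MgCl₂, 1 mM CaCl₂, pH 7.4, with 0.2% ovalbumin. Bound radioligand was separated on PEI-soaked GF/C filters and counted by scintillation, and IC₅₀ came from nonlinear sigmoidal regression.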

B2: Compound 170 (peptide)
peptide: Isovaleryl-APEK([AEEA-AEEA-γGlu-C18 diacid])PEEEASPEELEQYYVSLRHYYNWLTRQRY-NH2
SMILES: CC(C)CC(=O)N[C@@H](C)C(=O)N1CCC[C@H]1C(=O)N[C@@H](CCC(=O)O)C(=O)N[C@@H](CCCCNC(=O)COCCOCCNC(=O)COCCOCCNC(=O)CC[C@H](NC(=O)CCCCCCCCCCCCCCCCC(=O)O)C(=O)O)C(=O)N1CCC[C@H]1C(=O)N[C@@H](CCC(=O)O)C(=O)N[C@@H](CCC(=O)O)C(=O)N[C@@H](CCC(=O)O)C(=O)N[C@@H](C)C(=O)N[C@@H](CO)C(=O)N1CCC[C@H]1C(=O)N[C@@H](CCC(=O)O)C(=O)N[C@@H](CCC(=O)O)C(=O)N[C@@H](CC(C)C)C(=O)N[C@@H](CCC(=O)O)C(=O)N[C@@H](CCC(N)=O)C(=O)N[C@@H](Cc1ccc(O)cc1)C(=O)N[C@@H](Cc1ccc(O)cc1)C(=O)N[C@H](C(=O)N[C@@H](CO)C(=O)N[C@@H](CC(C)C)C(=O)N[C@@H](CCCNC(=N)N)C(=O)N[C@@H](Cc1c[nH]cn1)C(=O)N[C@@H](Cc1ccc(O)cc1)C(=O)N[C@@H](Cc1ccc(O)cc1)C(=O)N[C@@H](CC(N)=O)C(=O)N[C@@H](Cc1c[nH]c2ccccc12)C(=O)N[C@@H](CC(C)C)C(=O)N[C@H](C(=O)N[C@@H](CCCNC(=N)N)C(=O)N[C@@H](CCC(N)=O)C(=O)N[C@@H](CCCNC(=N)N)C(=O)N[C@@H](Cc1ccc(O)cc1)C(N)=O)[C@@H](C)O)C(C)C
Ki: 12.3 nM

B5: Compound 174 (peptide)
peptide: Isovaleryl-APAK([AEEA-AEEA-γGlu-C18 diacid])PEEDAEPEELQRYYVSLRHYYNWLTRQRY-NH2
SMILES: CC(C)CC(=O)N[C@@H](C)C(=O)N1CCC[C@H]1C(=O)N[C@@H](C)C(=O)N[C@@H](CCCCNC(=O)COCCOCCNC(=O)COCCOCCNC(=O)CC[C@H](NC(=O)CCCCCCCCCCCCCCCCC(=O)O)C(=O)O)C(=O)N1CCC[C@H]1C(=O)N[C@@H](CCC(=O)O)C(=O)N[C@@H](CCC(=O)O)C(=O)N[C@@H](CC(=O)O)C(=O)N[C@@H](C)C(=O)N[C@@H](CCC(=O)O)C(=O)N1CCC[C@H]1C(=O)N[C@@H](CCC(=O)O)C(=O)N[C@@H](CCC(=O)O)C(=O)N[C@@H](CC(C)C)C(=O)N[C@@H](CCC(N)=O)C(=O)N[C@@H](CCCNC(=N)N)C(=O)N[C@@H](Cc1ccc(O)cc1)C(=O)N[C@@H](Cc1ccc(O)cc1)C(=O)N[C@H](C(=O)N[C@@H](CO)C(=O)N[C@@H](CC(C)C)C(=O)N[C@@H](CCCNC(=N)N)C(=O)N[C@@H](Cc1c[nH]cn1)C(=O)N[C@@H](Cc1ccc(O)cc1)C(=O)N[C@@H](Cc1ccc(O)cc1)C(=O)N[C@@H](CC(N)=O)C(=O)N[C@@H](Cc1c[nH]c2ccccc12)C(=O)N[C@@H](CC(C)C)C(=O)N[C@H](C(=O)N[C@@H](CCCNC(=N)N)C(=O)N[C@@H](CCC(N)=O)C(=O)N[C@@H](CCCNC(=N)N)C(=O)N[C@@H](Cc1ccc(O)cc1)C(N)=O)[C@@H](C)O)C(C)C
Ki: 3.89 nM

B6: Compound 176 (peptide)
peptide: Isovaleryl-APEK([AEEA-AEEA-γGlu-C18 diacid])PEEDASEEELQRYYVSLRHYYNWLTRQRY-NH2
SMILES: CC(C)CC(=O)N[C@@H](C)C(=O)N1CCC[C@H]1C(=O)N[C@@H](CCC(=O)O)C(=O)N[C@@H](CCCCNC(=O)COCCOCCNC(=O)COCCOCCNC(=O)CC[C@H](NC(=O)CCCCCCCCCCCCCCCCC(=O)O)C(=O)O)C(=O)N1CCC[C@H]1C(=O)N[C@@H](CCC(=O)O)C(=O)N[C@@H](CCC(=O)O)C(=O)N[C@@H](CC(=O)O)C(=O)N[C@@H](C)C(=O)N[C@@H](CO)C(=O)N[C@@H](CCC(=O)O)C(=O)N[C@@H](CCC(=O)O)C(=O)N[C@@H](CCC(=O)O)C(=O)N[C@@H](CC(C)C)C(=O)N[C@@H](CCC(N)=O)C(=O)N[C@@H](CCCNC(=N)N)C(=O)N[C@@H](Cc1ccc(O)cc1)C(=O)N[C@@H](Cc1ccc(O)cc1)C(=O)N[C@H](C(=O)N[C@@H](CO)C(=O)N[C@@H](CC(C)C)C(=O)N[C@@H](CCCNC(=N)N)C(=O)N[C@@H](Cc1c[nH]cn1)C(=O)N[C@@H](Cc1ccc(O)cc1)C(=O)N[C@@H](Cc1ccc(O)cc1)C(=O)N[C@@H](CC(N)=O)C(=O)N[C@@H](Cc1c[nH]c2ccccc12)C(=O)N[C@@H](CC(C)C)C(=O)N[C@H](C(=O)N[C@@H](CCCNC(=N)N)C(=O)N[C@@H](CCC(N)=O)C(=O)N[C@@H](CCCNC(=N)N)C(=O)N[C@@H](Cc1ccc(O)cc1)C(N)=O)[C@@H](C)O)C(C)C
Ki: 3.05 nM

Binders with a lower Ki, results first:

Ki: 2.34 nM
B3: Compound 169 (peptide)
peptide: Isovaleryl-APEK([AEEA-AEEA-γGlu-C18 diacid])PEEEASPEELQRYYVALRHYYNWLTRQRY-NH2
SMILES: CC(C)CC(=O)N[C@@H](C)C(=O)N1CCC[C@H]1C(=O)N[C@@H](CCC(=O)O)C(=O)N[C@@H](CCCCNC(=O)COCCOCCNC(=O)COCCOCCNC(=O)CC[C@H](NC(=O)CCCCCCCCCCCCCCCCC(=O)O)C(=O)O)C(=O)N1CCC[C@H]1C(=O)N[C@@H](CCC(=O)O)C(=O)N[C@@H](CCC(=O)O)C(=O)N[C@@H](CCC(=O)O)C(=O)N[C@@H](C)C(=O)N[C@@H](CO)C(=O)N1CCC[C@H]1C(=O)N[C@@H](CCC(=O)O)C(=O)N[C@@H](CCC(=O)O)C(=O)N[C@@H](CC(C)C)C(=O)N[C@@H](CCC(N)=O)C(=O)N[C@@H](CCCNC(=N)N)C(=O)N[C@@H](Cc1ccc(O)cc1)C(=O)N[C@@H](Cc1ccc(O)cc1)C(=O)N[C@H](C(=O)N[C@@H](C)C(=O)N[C@@H](CC(C)C)C(=O)N[C@@H](CCCNC(=N)N)C(=O)N[C@@H](Cc1c[nH]cn1)C(=O)N[C@@H](Cc1ccc(O)cc1)C(=O)N[C@@H](Cc1ccc(O)cc1)C(=O)N[C@@H](CC(N)=O)C(=O)N[C@@H](Cc1c[nH]c2ccccc12)C(=O)N[C@@H](CC(C)C)C(=O)N[C@H](C(=O)N[C@@H](CCCNC(=N)N)C(=O)N[C@@H](CCC(N)=O)C(=O)N[C@@H](CCCNC(=N)N)C(=O)N[C@@H](Cc1ccc(O)cc1)C(N)=O)[C@@H](C)O)C(C)C

Ki: 1.71 nM
B4: Compound 173 (peptide)
peptide: Isovaleryl-APAK([AEEA-AEEA-γGlu-C18 diacid])PEEDASPEELQRYYVELRHYYNWLTRQRY-NH2
SMILES: CC(C)CC(=O)N[C@@H](C)C(=O)N1CCC[C@H]1C(=O)N[C@@H](C)C(=O)N[C@@H](CCCCNC(=O)COCCOCCNC(=O)COCCOCCNC(=O)CC[C@H](NC(=O)CCCCCCCCCCCCCCCCC(=O)O)C(=O)O)C(=O)N1CCC[C@H]1C(=O)N[C@@H](CCC(=O)O)C(=O)N[C@@H](CCC(=O)O)C(=O)N[C@@H](CC(=O)O)C(=O)N[C@@H](C)C(=O)N[C@@H](CO)C(=O)N1CCC[C@H]1C(=O)N[C@@H](CCC(=O)O)C(=O)N[C@@H](CCC(=O)O)C(=O)N[C@@H](CC(C)C)C(=O)N[C@@H](CCC(N)=O)C(=O)N[C@@H](CCCNC(=N)N)C(=O)N[C@@H](Cc1ccc(O)cc1)C(=O)N[C@@H](Cc1ccc(O)cc1)C(=O)N[C@H](C(=O)N[C@@H](CCC(=O)O)C(=O)N[C@@H](CC(C)C)C(=O)N[C@@H](CCCNC(=N)N)C(=O)N[C@@H](Cc1c[nH]cn1)C(=O)N[C@@H](Cc1ccc(O)cc1)C(=O)N[C@@H](Cc1ccc(O)cc1)C(=O)N[C@@H](CC(N)=O)C(=O)N[C@@H](Cc1c[nH]c2ccccc12)C(=O)N[C@@H](CC(C)C)C(=O)N[C@H](C(=O)N[C@@H](CCCNC(=N)N)C(=O)N[C@@H](CCC(N)=O)C(=O)N[C@@H](CCCNC(=N)N)C(=O)N[C@@H](Cc1ccc(O)cc1)C(N)=O)[C@@H](C)O)C(C)C

Ki: 0.66 nM
B1: Compound 166 (peptide)
peptide: Isovaleryl-APEK([AEEA-AEEA-γGlu-C18 diacid])PPADASPEELQRYYVELRHYYNWLTRQRY-NH2
SMILES: CC(C)CC(=O)N[C@@H](C)C(=O)N1CCC[C@H]1C(=O)N[C@@H](CCC(=O)O)C(=O)N[C@@H](CCCCNC(=O)COCCOCCNC(=O)COCCOCCNC(=O)CC[C@H](NC(=O)CCCCCCCCCCCCCCCCC(=O)O)C(=O)O)C(=O)N1CCC[C@H]1C(=O)N1CCC[C@H]1C(=O)N[C@@H](C)C(=O)N[C@@H](CC(=O)O)C(=O)N[C@@H](C)C(=O)N[C@@H](CO)C(=O)N1CCC[C@H]1C(=O)N[C@@H](CCC(=O)O)C(=O)N[C@@H](CCC(=O)O)C(=O)N[C@@H](CC(C)C)C(=O)N[C@@H](CCC(N)=O)C(=O)N[C@@H](CCCNC(=N)N)C(=O)N[C@@H](Cc1ccc(O)cc1)C(=O)N[C@@H](Cc1ccc(O)cc1)C(=O)N[C@H](C(=O)N[C@@H](CCC(=O)O)C(=O)N[C@@H](CC(C)C)C(=O)N[C@@H](CCCNC(=N)N)C(=O)N[C@@H](Cc1c[nH]cn1)C(=O)N[C@@H](Cc1ccc(O)cc1)C(=O)N[C@@H](Cc1ccc(O)cc1)C(=O)N[C@@H](CC(N)=O)C(=O)N[C@@H](Cc1c[nH]c2ccccc12)C(=O)N[C@@H](CC(C)C)C(=O)N[C@H](C(=O)N[C@@H](CCCNC(=N)N)C(=O)N[C@@H](CCC(N)=O)C(=O)N[C@@H](CCCNC(=N)N)C(=O)N[C@@H](Cc1ccc(O)cc1)C(N)=O)[C@@H](C)O)C(C)C
